The data set concerns the molecule itself. Description: thioflavin T fluorescence aggregation assay; 5 µM protein (monomer peak from Superose 12), 30 µM ThT, 37 °C, 20 mM HEPES pH 7.5, 150 mM NaCl, 1 mM DTT; without or with CLR01 or CLR03; amyloid self-assembly.

B1: Truncated ataxin-3 variant comprising the N-terminal globular Josephin domain (Atx3 JD) (domain or fragment, human, UniProt P54252-2 1-180, looked up)
chain: MESIFHEKQEGSLCAQHCLNNLLQGEYFSPVELSSIAHQLDEEERMRMAEGGVTSEDYRTFLQQPSGNMDDSGFFSIQVISNALKVWGLELILFNSPEYQRLRIDPINERSFICNYKEHWFTVRKLGKQWFNLNSLLTGPELISDTYLALFLAQLQQEGYSIFVVKGDLPDCEADQLLQM
notes: Ataxin-3 (Atx3), human, UniProt P54252-2, N-terminal globular Josephin domain; printed MW 23 767.87 Da; The text names residues up to R182; NMR models of JD: PDB 1YZB and 2AGA (cited); also called isolated JD; not shown: His6, N-terminal, kept
Take B1: the binding result is “binds”.
